The source of these data is PMC7540724.

The assay has as its target Thermus thermophilus RodA (FLAG-3C-RodA) (Thermus thermophilus) (UniProt Q5SIX3). The assay can be described thus: crystal structure.

On to “Thermus thermophilus PBP2 (PBP2-3C-PrtC) (enzyme)”, for which the stoichiometry N (PBP2 per RodA) stood at 1.
